Source: patent publication US20250027068
Where a chain is given by its changes, count along the chain named.

Target: pooled human IgG (human IgG1,2,3 and 4)

B1: PRT-674 (protein)
chain: MQITSVWTKGVTPPTMEQFRYNNYDVFHAPYLPGQGWYDITKAFDGGDNLLCGAATAGNMLHWWFDQNKEEIEAYLSKYPEKQKIIFNNQELFDLRKAINSKDSQTNSELFNYFRDKAFGNLSARQKGVMPDLVLDMFINGYYLNLNKTQSTDVNRPYQDPDKRGGIFDDVFKEGDQTKLLTARHDLSNGGLDDISTIIKQELQSGRALALSHTYANVSYSHVINLWGADFDAEGNLEAIYVTDSDDDQSIGMKKYKVGKNASGHVRISAKKIEDENIGAQVLGLFTLSLGKEIWQKLSLEHHHHHH
Enzyme activity endpoint: Fab′2: 462 ng/µL | Enzyme activity endpoint: Fc: 0 ng/µL | Enzyme activity endpoint: IgG: 891 ng/µL | Enzyme activity endpoint: scIgG: 12 ng/µL

B2: PRT-676 (protein)
chain: MQITSVWTKGVTPPTMDQFTNYNYDVFHAPYKPGQGWYDITKTFDGKDNLLCGAATAGNMLHWWFDQNKEEIENYLKKHPEKQKIIFNNQKMFDLRKAINTKDSQTNSALFNYFKDKAFPNLSARQKGVMPDLVLDMFINGYYLNLGKTQSTDVNREYQTKDSRGGIFDDVFGRGDQTKLLTARHDLYNGGLNDISQLIKQELSSGKALGLSHTYANVRYSHVINLWGADFDEEGNLEAIYVTDSDDDASIGMKKYYVGKNASGKVAISAKKIEGENIGAQVLGLFTLSSGKEIWQKLSLEHHHHHH
Enzyme activity endpoint: Fab′2: 107 ng/µL | Enzyme activity endpoint: Fc: 136 ng/µL | Enzyme activity endpoint: IgG: 0 ng/µL | Enzyme activity endpoint: scIgG: 118 ng/µL

B3: PRT-664 (protein)
chain: MQITSVWTKGVTPLTPEQFRYNNEDVIHAPYLPHQGWYDITKAFDGKDNLLCGAATAGNMLHWWFDQNKTEIEAYLSKHPEKQKIIFNNQELFDLRAAINTKDSQTNSALFNYFRDKAFPNLSARQLGVMPDLVLDMFINGYYLNVFKTQSTDVNRPYQDKDKRGGIFDAVFTRGDQTTLLTARHDLKNKGLNDISTLIKQELTEGKALALSHTYANVSISHVINLWGADFNAEGNLEAIYVTDSDSDASIGMKKYYVGINASGHVAISAKKIEGENIGAQVLGLFTLSSGKDIWQKLSLEHHHHHH
Enzyme activity endpoint: Fab′2: 703 ng/µL | Enzyme activity endpoint: Fc: 419 ng/µL | Enzyme activity endpoint: IgG: 0 ng/µL | Enzyme activity endpoint: scIgG: 0 ng/µL

B4: PRT-669 (protein)
chain: MQITSVWTKGVTPPTPEQFTNNNEDVFHAPYLANQGWYDITKTFNGKDNLLCGAATAGNMLHWWFDQNKEQIEAYLKKHPEKQKIIFNNQEMFDLKKAIDTKDSQTNSALFNYFRDKAFPNLSARQLGVMPDLVLDMFINGYYLNVGKTQSTDVNRPYQTKDKRGGIFDAVFTRGDQTKLLTARHDLKNKGLNEISDLIKQELTEGKALALSHTYANVRINHVINLWGADFNAEGNLIAIYVTDSDSNASIGMKKYFVGVNSAGKVAISAKKIEGDNIGAQVLGLFTLSSGQDIWQKLSLEHHHHHH
Enzyme activity endpoint: Fab′2: 808 ng/µL | Enzyme activity endpoint: Fc: 457 ng/µL | Enzyme activity endpoint: IgG: 0 ng/µL | Enzyme activity endpoint: scIgG: 0 ng/µL

B5: PRT-570 (protein)
chain: MANQEIRYSEATPSHITSVWTKGVTPPEQFIQNEDVLHAPYIANQGWYDITKTFNGKDDLLCGAATAGNMLHWWFDQNKEQIEAYLKKHPEKQKINFNGEQMFDVKEAIDTKDSQTDSALFNYFKDKAFPYLSTKHLGVFPDHVIDMFINGYRLSLTNHGPTPVKEQTKDPRGGIFDAVFTRGDQSKLLTSRHDFKEKTLKEISQLIKQELTEGKALGLSHTYANVRINHVINLWGADFNAEGNLEAIYVTDSDSNASIGMKKYYVGVNSAGKVAISAKEIEGDNIGAQVLGLFTLSTGQDIWQQTNLEHHHHHH
Enzyme activity endpoint: Fab′2: 551 ng/µL | Enzyme activity endpoint: Fc: 126 ng/µL | Enzyme activity endpoint: IgG: 0 ng/µL | Enzyme activity endpoint: scIgG: 0 ng/µL

B6: PRT-616 (protein)
chain: MQITTVWTKGVTPLTPEQFRYNNEDVIHAPYLPHQGWYDITKAFDGKDNLLCGAATAGNMLHWWFDQNKTEIEAYLSKYPEKQKIIFNNQELFDLRAAINTKDSQTNSQLFNYFRDKAFPNLSARQLGVMPDLVLDMFINGYYLNVFKTQSTDVNRPYQDRDKRGGIFDAVFNRGDQTTLLTARHDLKNKGLNDISTIIKQELSSGRALALSHTYANVSISHVINLWGADFNAEGNLEAIYVTDSDANASIGMKKYYVGINAHGHVAISAKKIEGENIGAQVLGLFTLSSGKDIWQKLSLEHHHHHH
Enzyme activity endpoint: Fab′2: 943 ng/µL | Enzyme activity endpoint: Fc: 495 ng/µL | Enzyme activity endpoint: IgG: 0 ng/µL | Enzyme activity endpoint: scIgG: 0 ng/µL

B7: PRT-557 (protein)
chain: MANQEIRYSEEDGKTITSVWTKGVTPPTDFQKNEDVYHAPYVANQGWYDITKTFNGKDDLLCGAATAGNMLHWWFDQNKEEIERYLKKHPEKQKINFNGEQMFDVKEAIDTKDSQTDSALFEYFKDKAFPYLSTKHLGVFPDHVIDMFINGYRLSLTNHGPTPVKDGTKDPRGGIFDAVFTRGDQTKLLTERHDFKEKTLNEISDLIKQELQEGKALGLSHTYANVRINHVINLWGADFDSEGNLEAIYVTDSDSNASIGMKKYYVGVNSAGKVAISAKEIEDDNIGAQVLGLFTLSTGKDIWEQTNLEHHHHHH
Enzyme activity endpoint: Fab′2: 512 ng/µL | Enzyme activity endpoint: Fc: 410 ng/µL | Enzyme activity endpoint: IgG: 0 ng/µL | Enzyme activity endpoint: scIgG: 194 ng/µL

B8: PRT-628 (protein)
chain: MQITSVWTKGVTPLTPEQFRYNNEDVIHAPYLAHQGWYDITKAFDGKDNLLCGAATAGNMLHWWFDQNKEEIEAYLKKHPEKQKIIFNNQELFDLKAAIDTKDSQTNSQLFNYFRDKAFPNLSARQLGVMPDLVLDMFINGYYLNVFKTQSTDVNRPYQDKDKRGGIFDAVFTRGDQTTLLTARHDLKNKGLNDISTIIKQELTEGRALALSHTYANVSISHVINLWGADFNAEGNLEAIYVTDSDANASIGMKKYFVGINAHGHVAISAKKIEGENIGAQVLGLFTLSSGQDIWQQLSLEHHHHHH
Enzyme activity endpoint: Fab′2: 852 ng/µL | Enzyme activity endpoint: Fc: 465 ng/µL | Enzyme activity endpoint: IgG: 0 ng/µL | Enzyme activity endpoint: scIgG: 0 ng/µL

B9: PRT-656 (protein)
chain: B8 chain with E70T, K77S, A97R, D100N, T101D, T106Q, Q109E, Q292K, Q297K
Enzyme activity endpoint: Fab′2: 841 ng/µL | Enzyme activity endpoint: Fc: 540 ng/µL | Enzyme activity endpoint: IgG: 0 ng/µL | Enzyme activity endpoint: scIgG: 319 ng/µL

B10: PRT-679 (protein)
chain: B8 chain with A43T, E70T, K77S, A97E, D100N, D194E, R207K, Q292K, Q297K
Enzyme activity endpoint: Fab′2: 693 ng/µL | Enzyme activity endpoint: Fc: 327 ng/µL | Enzyme activity endpoint: IgG: 34 ng/µL | Enzyme activity endpoint: scIgG: 54 ng/µL

B11: PRT-648 (protein)
chain: B8 chain with E70T, K77S, E91Y, P120G, F147N, D160K, K161P, Q292K, Q297K
Enzyme activity endpoint: Fab′2: 182 ng/µL | Enzyme activity endpoint: Fc: 206 ng/µL | Enzyme activity endpoint: IgG: 417 ng/µL | Enzyme activity endpoint: scIgG: 619 ng/µL

B12: PRT-652 (protein)
chain: B8 chain with E70T, K77S, T214G, Y215T, V218G, S219G, I220Y, I278K, Q292K, Q297K
Enzyme activity endpoint: Fab′2: 410 ng/µL | Enzyme activity endpoint: Fc: 0 ng/µL | Enzyme activity endpoint: IgG: 789 ng/µL | Enzyme activity endpoint: scIgG: 12 ng/µL

B13: PRT-653 (protein)
chain: B8 chain with E70T, K77S, A216G, S219R, I220S, I278V, Q292K, Q297K
Enzyme activity endpoint: Fab′2: 1350 ng/µL | Enzyme activity endpoint: Fc: 0 ng/µL | Enzyme activity endpoint: IgG: 2350 ng/µL | Enzyme activity endpoint: scIgG: 0 ng/µL
